In publication PMC11065315:

Columns and labels:
[1] = molecular target: eIFiso4F (unphosphorylated; wheat eIFiso4E and eIFiso4G) (wheat)
[2] = molecular target: phosphorylated eIFiso4F (wheat eIFiso4Ep and eIFiso4Gp, phosphorylated in vitro by casein kinase 2) (wheat); test: other fluorescence titration; 20°C; quenching of the intrinsic fluorescence of the eIFs by increasing VPg; 20 mM HEPES/KOH pH 7.6, 100 mM NaCl, 1 mM MgCl2, 1 mM DTT
[3] = molecular target: phosphorylated eIFiso4F in complex with eIF4B (wheat) (UniProt Q9AUJ7); test: as above
[4] = molecular target: phosphorylated eIFiso4F in complex with eIF4B and poly(A)-binding protein (wheat) (UniProt Q9AUJ7); test: as above
[5] = molecular target: phosphorylated eIFiso4F in complex with poly(A)-binding protein (wheat); test: as above
[6] = molecular target: phosphorylated eIFiso4F (wheat eIFiso4Ep and eIFiso4Gp, phosphorylated in vitro by casein kinase 2) (wheat); test: other fluorescence titration; Van't Hoff plot (ln Keq against 1/T) of the fluorescence titrations at 5, 10, 15, 20 and 25°C
[7] = molecular target: phosphorylated eIFiso4F in complex with eIF4B (wheat) (UniProt Q9AUJ7); test: as above
[8] = molecular target: phosphorylated eIFiso4F in complex with eIF4B and poly(A)-binding protein (wheat) (UniProt Q9AUJ7); test: as above
[9] = molecular target: phosphorylated eIFiso4F in complex with poly(A)-binding protein (wheat); test: as above
[10] = molecular target: phosphorylated eIFiso4F (wheat eIFiso4Ep and eIFiso4Gp, phosphorylated in vitro by casein kinase 2) (wheat); test: other fluorescence titration; 15°C; quenching of the intrinsic fluorescence of the eIFs by increasing VPg; 20 mM HEPES/KOH pH 7.6, 100 mM NaCl, 1 mM MgCl2, 1 mM DTT
[11] = molecular target: phosphorylated eIFiso4F in complex with eIF4B (wheat) (UniProt Q9AUJ7); test: as above
[12] = molecular target: phosphorylated eIFiso4F in complex with eIF4B and poly(A)-binding protein (wheat) (UniProt Q9AUJ7); test: as above
[13] = molecular target: phosphorylated eIFiso4F in complex with poly(A)-binding protein (wheat); test: as above
[14] = molecular target: phosphorylated eIFiso4F (wheat eIFiso4Ep and eIFiso4Gp, phosphorylated in vitro by casein kinase 2) (wheat); test: other fluorescence titration; 5°C; quenching of the intrinsic fluorescence of the eIFs by increasing VPg; 20 mM HEPES/KOH pH 7.6, 100 mM NaCl, 1 mM MgCl2, 1 mM DTT
[15] = molecular target: phosphorylated eIFiso4F in complex with eIF4B (wheat) (UniProt Q9AUJ7); test: as above
[16] = molecular target: phosphorylated eIFiso4F in complex with eIF4B and poly(A)-binding protein (wheat) (UniProt Q9AUJ7); test: as above
[17] = molecular target: phosphorylated eIFiso4F in complex with poly(A)-binding protein (wheat); test: as above
[18] = molecular target: phosphorylated eIFiso4F (wheat eIFiso4Ep and eIFiso4Gp, phosphorylated in vitro by casein kinase 2) (wheat); test: other fluorescence titration; 25°C; quenching of the intrinsic fluorescence of the eIFs (excitation 280 nm, emission 334 nm) by increasing VPg; 100 nM eIFs or BSA (results; 500 nM in the methods); 20 mM HEPES/KOH pH 7.6, 100 mM NaCl, 1 mM MgCl2, 1 mM DTT; complexes pre-formed for 15 min
[19] = molecular target: phosphorylated eIFiso4F in complex with eIF4B (wheat) (UniProt Q9AUJ7); test: as above
[20] = molecular target: phosphorylated eIFiso4F in complex with eIF4B and poly(A)-binding protein (wheat) (UniProt Q9AUJ7); test: as above
[21] = molecular target: phosphorylated eIFiso4F in complex with poly(A)-binding protein (wheat); test: as above
[22] = molecular target: phosphorylated eIFiso4F (wheat eIFiso4Ep and eIFiso4Gp, phosphorylated in vitro by casein kinase 2) (wheat)
[23] = molecular target: phosphorylated eIFiso4F (wheat eIFiso4Ep and eIFiso4Gp, phosphorylated in vitro by casein kinase 2) (wheat); test: other fluorescence titration; 10°C; quenching of the intrinsic fluorescence of the eIFs by increasing VPg; 20 mM HEPES/KOH pH 7.6, 100 mM NaCl, 1 mM MgCl2, 1 mM DTT
[24] = molecular target: phosphorylated eIFiso4F in complex with eIF4B (wheat) (UniProt Q9AUJ7); test: as above
[25] = molecular target: phosphorylated eIFiso4F in complex with eIF4B and poly(A)-binding protein (wheat) (UniProt Q9AUJ7); test: as above
[26] = molecular target: phosphorylated eIFiso4F in complex with poly(A)-binding protein (wheat); test: as above

viral protein genome-linked (VPg) of turnip mosaic virus (natural protein)
luciferase translation of uncapped TEV mRNA in eIF4F/eIFiso4F/eIF4B/PABP-depleted WGE with 20 nM VPg, escalating PABP up to 200 nM against no PABP [1]: 3 fold
Kd [2]: 0.031 µM
Kd [3]: 0.0293 µM
Kd [4]: 0.0195 µM
Kd [5]: 0.0265 µM
dH [6]: -33.4 kJ/mol
dH [7]: -35.4 kJ/mol
dH [8]: -53.7 kJ/mol
dH [9]: -48.9 kJ/mol
Kd [10]: 0.0262 µM
Kd [11]: 0.024 µM
Kd [12]: 0.0161 µM
Kd [13]: 0.0191 µM
Kd [14]: 0.0171 µM
Kd [15]: 0.015 µM
Kd [16]: 0.0086 µM
Kd [17]: 0.0103 µM
Kd [18]: 0.041 µM
Kd [19]: 0.0341 µM
Kd [20]: 0.024 µM
Kd [21]: 0.032 µM
luciferase translation of capped TEV-luc-A50 mRNA in depleted WGE supplemented with eIFiso4Fp, with against without 20 nM VPg [22]: 2.5 fold
luciferase translation of uncapped TEV-luc-A50 mRNA in depleted WGE supplemented with eIFiso4Fp, with against without 20 nM VPg [22]: 5 fold
luciferase translation of uncapped TEV-luc-A50 mRNA in depleted WGE with eIFiso4Fp and VPg, with against without added PABP [22]: 2 fold
Kd [23]: 0.021 µM
Kd [24]: 0.0191 µM
Kd [25]: 0.012 µM
Kd [26]: 0.014 µM
